Laboratory results reported in patent US20180237508A1 (INTERNATIONA DRUG DEVELOPMENT BIOTECH, published 2018).
Ends that are not written are not given here.

T1: Unconjugated peptide 8 (human)
T1 peptide: LEAALQRAKQD

T2: Unconjugated peptide 13 (human)
T2 peptide: AKLSELEAALQRAKQD

T3: Unconjugated peptide 11 (human)
T3 peptide: LSELEAALQRAKQD

T4: Unconjugated peptide 9 (human)
T4 peptide: ELEAALQRAKQD

T5: Unconjugated peptide 22 (human)
T5 peptide: AIKDANAKLSELEAALQ

T6: Unconjugated peptide 16 (human)
T6 peptide: DANAKLSELEAALQRAKQD

T7: Unconjugated peptide 19 (human)
T7 peptide: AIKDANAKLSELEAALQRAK

T8: Unconjugated peptide 20 (human)
T8 peptide: AIKDANAKLSELEAALQRA

T9: Unconjugated peptide 17 (human)
T9 peptide: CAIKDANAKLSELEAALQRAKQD

T10: Unconjugated peptide 25 (human)
T10 peptide: AIKDANAKLSELEA

T11: Unconjugated peptide 7 (human)
T11 peptide: EAALQRAKQD

T12: Unconjugated peptide 24 (human)
T12 peptide: AIKDANAKLSELEAA

T13: Unconjugated peptide 10 (human)
T13 peptide: SELEAALQRAKQD

T14: Unconjugated peptide 28 (human)
T14 peptide: AIKDANAKLSE

T15: Unconjugated peptide 5 (human)
T15 peptide: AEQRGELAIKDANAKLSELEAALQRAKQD

T16: Unconjugated peptide 14 (human)
T16 peptide: NAKLSELEAALQRAKQD

T17: Unconjugated peptide 27 (human)
T17 peptide: AIKDANAKLSEL

T18: Unconjugated peptide 26 (human)
T18 peptide: AIKDANAKLSELE

T19: Unconjugated peptide 18 (human)
T19 peptide: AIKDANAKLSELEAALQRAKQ

T20: Unconjugated peptide 6 (human)
T20 peptide: AALQRAKQD

T21: Unconjugated peptide 21 (human)
T21 peptide: AIKDANAKLSELEAALQR

T22: Unconjugated peptide 15 (human)
T22 peptide: ANAKLSELEAALQRAKQD

T23: Unconjugated peptide 12 (human)
T23 peptide: KLSELEAALQRAKQD

T24: BSA conjugated peptide 17 (human, BSA conjugated (the added cysteine is printed at the N-terminus))
T24 peptide: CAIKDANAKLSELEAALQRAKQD

T25: BSA conjugated peptide 3 (human, also: conjugated to BSA via the thiol of the C-terminal Cys)
T25 peptide: AALQRAKQDC(BSA)

T26: BSA conjugated peptide 4 (human, also: conjugated to BSA via the thiol of the C-terminal Cys)
T26 peptide: SELEAALQRAKQDC(BSA)

T27: BSA conjugated peptide 2 (human, BSA coupled at the SH group of the C-terminal cysteine)
T27 peptide: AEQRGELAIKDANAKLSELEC

T28: BSA conjugated peptide 1 (human, BSA coupled at the SH group of the C-terminal cysteine)
T28 peptide: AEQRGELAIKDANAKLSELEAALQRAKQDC

B1: Murine monoclonal antibody D-A10 (antibody, V domains shown)
VH: EVQLLETGGGLVQPGGSRGLSCEGSGFTFSGFWMSWVRQTPGKTLEWIGDINSDGSAIKYAPSIKDRFTIFRDNDKSTLYLQMSNVRSEDTATYFCIAHYSGGGFAYWGQGTSVTVSS
VL: NIVMTQAAPSVPVTPGESVSISCRSSKSLLYSNGNTYLYWFLQRPGQSPQRLIYYMSNLASGVPDRFSGRGSGTDFTLRISRVEAEDVGVYYCMQSLEYPFTFGGGTKLEIK
notes: Murine IgG from a hybridoma, purified from ascitic fluid on protein A; also called mD-A10 Mab; mD-A10
B2: Unconjugated peptide 1 (peptide)
peptide: T28 peptide

Key:
[1] = molecular target: T1, Unconjugated peptide 8; experiment: ELISA, coated unconjugated peptide
Experimental: (§1) The CK8 peptides, coupled or not with the bovine serum albumin (BSA) at the SH group of the C-terminal cysteine, were immobilized (0.5 μg/ml or 1 μg/ml respectively) at the bottom of the wells of a 96 well plate overnight at room temperature. Unbound peptides are washed away with purified water supplemented by Tween (Sigma, St Quentin Fallavier, France). The wells are then saturated with a saline phosphate buffer solution (PBS) containing 5% BSA for 2 hours at room temperature (RT). Then the plates are washed away with purified water supplemented by Tween. The Mab binding to the coated peptides is tested at different Mab concentrations following an incubation for 2 hours at RT in PBS (Invitrogen, Villebon sur Yvette, France) supplemented by 1% Bovine Serum Albumin (Sigma, St Quentin Fallavier, France). Unbound Mabs are washed away with purified water supplemented by Tween. […] The absorbance is read at 450 nm and corrected at 630 nm. The specific requirements for the different experiments are detailed below.
(§2) The unconjugated peptides 1, 5 to 28 of human CK8 were immobilized (2 μg/ml) at the bottom of a 96-wells plate. Different Mab concentrations (from 10 μg/mL then diluted at 1/10) were incubated for 2 hours at room temperature alone or with each peptide tested. The optical density values (OD) was read at 450 nm and corrected at 630 nm. The results are shown in FIG. 13A (related to mD-A10) or on FIG. 13B (related to M20).

[2] = molecular target: T2, Unconjugated peptide 13; experiment: ELISA, coated unconjugated peptide
Experimental: as §1, §2

[3] = molecular target: T3, Unconjugated peptide 11; experiment: ELISA, coated unconjugated peptide
Experimental: as §1, §2

[4] = molecular target: T4, Unconjugated peptide 9; experiment: ELISA, coated unconjugated peptide
Experimental: as §1, §2

[5] = molecular target: T5, Unconjugated peptide 22; experiment: ELISA, coated unconjugated peptide
Experimental: as §1, §2

[6] = molecular target: T6, Unconjugated peptide 16; experiment: ELISA, coated unconjugated peptide
Experimental: as §1, §2

[7] = molecular target: T7, Unconjugated peptide 19; experiment: ELISA, coated unconjugated peptide
Experimental: as §1, §2

[8] = molecular target: T8, Unconjugated peptide 20; experiment: ELISA, coated unconjugated peptide
Experimental: as §1, §2

[9] = molecular target: T9, Unconjugated peptide 17; experiment: ELISA, coated unconjugated peptide
Experimental: as §1, §2

[10] = molecular target: T10, Unconjugated peptide 25; experiment: ELISA, coated unconjugated peptide
Experimental: as §1, §2

[11] = molecular target: T11, Unconjugated peptide 7; experiment: ELISA, coated unconjugated peptide
Experimental: as §1, §2

[12] = molecular target: B2; experiment: ELISA, coated unconjugated peptide
Experimental: as §1, §2

[13] = molecular target: Unconjugated peptide 23 (human); experiment: ELISA, coated unconjugated peptide
Experimental: as §1, §2

[14] = molecular target: T12, Unconjugated peptide 24; experiment: ELISA, coated unconjugated peptide
Experimental: as §1, §2

[15] = molecular target: T13, Unconjugated peptide 10; experiment: ELISA, coated unconjugated peptide
Experimental: as §1, §2

[16] = molecular target: T14, Unconjugated peptide 28; experiment: ELISA, coated unconjugated peptide
Experimental: as §1, §2

[17] = molecular target: T15, Unconjugated peptide 5; experiment: ELISA, coated unconjugated peptide
Experimental: as §1, §2

[18] = molecular target: T16, Unconjugated peptide 14; experiment: ELISA, coated unconjugated peptide
Experimental: as §1, §2

[19] = molecular target: T17, Unconjugated peptide 27; experiment: ELISA, coated unconjugated peptide
Experimental: as §1, §2

[20] = molecular target: T18, Unconjugated peptide 26; experiment: ELISA, coated unconjugated peptide
Experimental: as §1, §2

[21] = molecular target: T19, Unconjugated peptide 18; experiment: ELISA, coated unconjugated peptide
Experimental: as §1, §2

[22] = molecular target: T20, Unconjugated peptide 6; experiment: ELISA, coated unconjugated peptide
Experimental: as §1, §2

[23] = molecular target: T21, Unconjugated peptide 21; experiment: ELISA, coated unconjugated peptide
Experimental: as §1, §2

[24] = molecular target: T22, Unconjugated peptide 15; experiment: ELISA, coated unconjugated peptide
Experimental: as §1, §2

[25] = molecular target: T23, Unconjugated peptide 12; experiment: ELISA, coated unconjugated peptide
Experimental: as §1, §2

[26] = molecular target: T24, BSA conjugated peptide 17; experiment: ELISA, coated BSA conjugated peptide
Experimental: as §1
(§3) Different Mab concentrations (from 10 μg/mL then diluted at 1/10) were incubated for 2 hours at room temperature with either the peptide 1, peptide 2, peptide 3, peptide 4 or peptide 17. The optical density values (OD) was read at 450 nm and corrected at 630 nm.

[27] = molecular target: T25, BSA conjugated peptide 3; experiment: ELISA, coated BSA conjugated peptide
Experimental: as §1, §3

[28] = molecular target: T26, BSA conjugated peptide 4; experiment: ELISA, coated BSA conjugated peptide
Experimental: as §1, §3

[29] = molecular target: T27, BSA conjugated peptide 2; experiment: ELISA, coated BSA conjugated peptide
Experimental: as §1, §3

[30] = molecular target: T28, BSA conjugated peptide 1; experiment: ELISA, coated BSA conjugated peptide
Experimental: as §1, §3

[31] = molecular target: B1; experiment: flow cytometry competition, free peptide against biotinylated antibody on Isreco-1 cells
Experimental: 2.10⁵ Isreco-1 cells per 96-wells were incubated with a biotinylated antibody anti-CK8 (12.5 μg/mL) with or without peptide 1 or peptide 2 tested at different concentrations and incubated at 4° C. for 30 min. Unbound antibody was washed away with PBS (Invitrogen, Villebon sur Yvette, France) supplemented by 1% Bovine Serum Albumin (Sigma, St Quentin Fallavier, France). Subsequently, cells were centrifuged (5 min at 400 g) and bound antibody was detected with Phycoerythrin conjugated Streptavidin (Interchim, Montlucon, France) at 4° C. for 30 min. Detection reagent was washed away and cells were centrifuged (5 min at 400 g) and suspended in 300 μL PBS. Bound detection antibody was quantified on a FACS CAN (BD Biosciences, Rungis, France), (FL2 channel, 2 000 events per acquisition). During the experiment, the respective isotype controls were included to exclude any unspecific binding events. The presence of peptide 1 inhibits cell labelling with the mD-D6 or mD-A10 Mab without any significant impact on M20 Mab cellular staining.

B1: no binding (tested: from 10 ug/mL then diluted at 1/10) [1]; binds [2]; binds [3]. B1: no binding (tested: from 10 ug/mL then diluted at 1/10) [4]; binds [5]; binds [6]. B1: binds [7]; binds [8]; binds [9]. B1: no binding (tested: from 10 ug/mL then diluted at 1/10) [10]; no binding (tested: from 10 ug/mL then diluted at 1/10) [11]; binds [12]. B1: binds [13]; no binding (tested: from 10 ug/mL then diluted at 1/10) [14]; no binding (tested: from 10 ug/mL then diluted at 1/10) [15]. B1: no binding (tested: from 10 ug/mL then diluted at 1/10) [16]; binds [17]; binds [18]. B1: no binding (tested: from 10 ug/mL then diluted at 1/10) [19]; no binding (tested: from 10 ug/mL then diluted at 1/10) [20]; binds [21]. B1: no binding (tested: from 10 ug/mL then diluted at 1/10) [22]; binds [23]; binds [24]. B1: binds [25]; binds [26]; no binding (tested: from 10 ug/mL then diluted at 1/10) [27]. B1: binds [28]; no binding (tested: from 10 ug/mL then diluted at 1/10) [29]; binds [30].

B2: binds [31].
